Laboratory results taken from patent publication US12503443B2, “Process-scale synthesis of a plasma kallikrein inhibitor” (BioCryst Pharmaceuticals, Inc., priority 2019, dated 2025).

Legend:
rat models of arthritis = details: cited from earlier work
[1] = tested on: patients with hereditary angioedema (HAE); details: human, in vivo; cited from earlier work
human plasma kallikrein = human plasma kallikrein (Homo sapiens, UniProt P03952); assay: in vitro biochemical assay measuring inhibition of human plasma kallikrein activity; details: protocols and results in WO 2015/134998 and US 2017/0073314 A1
Chain of human plasma kallikrein (P03952 391-638 limits assumed): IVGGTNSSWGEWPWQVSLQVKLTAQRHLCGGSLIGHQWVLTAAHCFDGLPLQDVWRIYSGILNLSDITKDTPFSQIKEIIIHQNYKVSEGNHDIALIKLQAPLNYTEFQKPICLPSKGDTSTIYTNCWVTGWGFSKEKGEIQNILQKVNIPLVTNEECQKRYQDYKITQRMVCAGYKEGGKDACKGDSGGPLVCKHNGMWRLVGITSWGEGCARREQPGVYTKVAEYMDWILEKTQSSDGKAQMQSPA
Chain of human plasma kallikrein (P03952 20-390 partner limits assumed): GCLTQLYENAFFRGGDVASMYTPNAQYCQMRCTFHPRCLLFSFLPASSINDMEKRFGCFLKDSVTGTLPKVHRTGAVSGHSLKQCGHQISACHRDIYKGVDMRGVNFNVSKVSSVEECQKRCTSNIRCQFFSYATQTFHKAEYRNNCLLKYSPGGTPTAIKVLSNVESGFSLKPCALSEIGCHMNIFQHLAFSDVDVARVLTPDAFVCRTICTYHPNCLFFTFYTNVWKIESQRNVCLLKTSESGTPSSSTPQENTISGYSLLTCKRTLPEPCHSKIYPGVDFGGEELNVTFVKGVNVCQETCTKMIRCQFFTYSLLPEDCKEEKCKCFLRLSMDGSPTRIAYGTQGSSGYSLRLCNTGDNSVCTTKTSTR
Method: Compound I was assayed in an in vitro biochemical assay measuring inhibition of human plasma kallikrein activity. Experimental protocols and results of the assays are found in WO 2015/134998 and U.S. Patent Application Publication No. 2017/0073314 A1 (both incorporated by reference).

sepsis patients = details: cited from earlier work
[2] = tested on: lipopolysaccharide (LPS)- or bacterial-induced sepsis in animals; details: cited from earlier work
[3] = tested on: mouse model of middle cerebral artery occlusion (MCAO); details: cited from earlier work

Cl.NCC1CCC(C(=O)N[C@@H](Cc2ccccc2)C(=O)Nc2ccc(CC(=O)O)cc2)CC1 (stereo partly shown) [PKSI-527]
joint swelling (rat models of arthritis): reduce

NC(N)=NCCC[C@@H](N)C(=O)N[C@@H](CCCN=C(N)N)C(=O)N1CCC[C@H]1C(=O)N1C[C@H](O)C[C@H]1C(=O)NCC(=O)N[C@@H](Cc1cccs1)C(=O)N[C@@H](CO)C(=O)N1Cc2ccccc2C[C@@H]1C(=O)N1[C@H](C(=O)N[C@@H](CCCN=C(N)N)C(=O)O)C[C@@H]2CCCC[C@@H]21 [Icatibant]
treating HAE [1]: effective

N#Cc1cccc([C@@H](NCC2CC2)c2ccc(F)c(NC(=O)c3cc(C(F)(F)F)nn3-c3cccc(CN)c3)c2)c1 [Compound I]
inhibition of human plasma kallikrein activity (human plasma kallikrein): potent inhibitor

B1: C1-inhibitor: physiological inhibitor of kallikrein in human plasma (protein, UniProt P05155 23-500, looked up)
Plasma protease C1 inhibitor: NPNATSSSSQDPESLQDRGEGKVATTVISKMLFVEPILEVSSLPTTNSTTNSATKITANTTDEPTTQPTTEPTTQPTIQPTQPTTQLPTDSPTQPTTGSFCPGPVTLCSDLESHSTEAVLGDALVDFSLKLYHAFSAMKKVETNMAFSPFSIASLLTQVLLGAGENTKTNLESILSYPKDFTCVHQALKGFTTKGVTSVSQIFHSPDLAIRDTFVNASRTLYSSSPRVLSNNSDANLELINTWVAKNTNNKISRLLDSLPSDTRLVLLNAIYLSAKWKTTFDPKKTRMEPFHFKNSVIKVPMMNSKKYPVAHFIDQTLKAKVGQLQLSHNLSLVILVPQNLKHRLEDMEQALSPSVFKAIMEKLEMSKFQPTLLTLPRIKVTTSQDMLSIMEKLEFFDFSYDLNLCGLTEDPDLQVSAMQHQTVLELTETGVEAAAASAISVARTLLVFEVQQPFLFVLWDQQHKFPVFMGRVYDPRA
clinical outcome in sepsis patients (sepsis patients): Clinical improvement
lesions [2]: reduce
vascular permeability in multiple organs [2]: reduce
infarct size [3]: reduced
